Laboratory results from patent US20250320312A1 (OXITOPE PHARMA B V, published 2025).
Where a chain is given by its changes, count along the chain named. Blank lines part the entries; values can stand above or below the molecule they belong to.

How the values were obtained:
[1] = target: PC-BSA; test: ELISA (DELFIA TRF), PC-BSA coated, titrated IgG1
[2] = target: Peptide 1: Biotin-…-[Tyr(PC)]-acid; test: scFv ELISA
[3] = target: Peptide 5: Biotin-…-[Tyr(PC)]-acid; test: scFv ELISA
[4] = target: BSA (UniProt P02769); test: scFv ELISA
[5] = target: T1, Peptide 8: Biotin-AEAAAKEAAAKEAAAKEAAAKAAA-Tyr-acid (N-terminal biotin; C-terminal acid; no PC); test: scFv ELISA
T1 construct: control peptide without PC
T1 peptide: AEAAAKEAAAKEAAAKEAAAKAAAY
How it was run: (§1)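 Bound scFv was read as OD450 after HRP–anti-V5 detection, TMB development and HCl stop. PPE with BSA was incubated 1 h at RT on BSA-blocked wells coated overnight at 4° C. with peptide, or on streptavidin wells loaded 1 h with biotinylated PC-peptides at 1 μg/mL.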

[6] = target: T2, Peptide 4: Biotin-AGGGGSGGGGSGGGGSAAA-Tyr-acid (N-terminal biotin; C-terminal acid; no PC); test: scFv ELISA
T2 construct: control peptide without PC
T2 peptide: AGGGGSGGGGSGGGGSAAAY
How it was run: as §1

PC-BSA, sequence (P02769 25-607 limits assumed, form in doubt): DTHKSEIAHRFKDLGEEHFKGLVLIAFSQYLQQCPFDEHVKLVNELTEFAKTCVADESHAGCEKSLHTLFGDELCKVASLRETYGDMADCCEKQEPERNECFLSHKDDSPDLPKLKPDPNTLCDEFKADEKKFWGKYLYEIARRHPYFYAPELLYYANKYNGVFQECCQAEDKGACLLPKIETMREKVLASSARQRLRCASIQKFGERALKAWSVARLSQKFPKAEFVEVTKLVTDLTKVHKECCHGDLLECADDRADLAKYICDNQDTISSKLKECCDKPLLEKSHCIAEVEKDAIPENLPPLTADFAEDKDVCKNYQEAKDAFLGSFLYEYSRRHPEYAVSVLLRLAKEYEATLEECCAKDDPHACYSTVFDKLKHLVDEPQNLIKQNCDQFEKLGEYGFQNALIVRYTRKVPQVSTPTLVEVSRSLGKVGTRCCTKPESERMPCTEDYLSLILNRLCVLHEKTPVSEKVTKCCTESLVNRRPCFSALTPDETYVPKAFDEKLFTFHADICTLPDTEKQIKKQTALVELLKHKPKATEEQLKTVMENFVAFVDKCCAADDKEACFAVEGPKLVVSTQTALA
BSA, sequence (P02769 25-607 limits assumed): as the sequence (P02769 25-607 limits assumed, form in doubt) above

- EC50 [1]: 0.39 nM
Molecule: E06 parental IgG1 (antibody)

- EC50 [1]: 0.263 nM
B1: PcOxP_DB01_G05 (human IgG1) (antibody, V domains shown)
VH: EVQLLESGGGLVQPGGSLRLSCAASGFTFSSYYMEWVRQAPGKGLEWVAASRNKANEYTTEYADSVKGRFTISRDNSKNTLYLQMNSLRAEDTAVYYCARDYYGSSYWYFDVWGQGTLVTVSS
VL: DIVMTQSPDSLAVSLGERATINCTASESLYSSKHKVHYLAWYQQKPGQPPKLLIYGASNRYIGVPDRFSGSGSGTDFTLTISSLQAEDVAVYYCANFYSYPLTFGGGTKVEIK

- EC50 [1]: 0.282 nM
B2: PcOxP_DB04_E05 (human IgG1) (antibody, V domains shown)
VH: B1 VH with F27N, S31D, Y32F, E57Y
VL: B1 VL with N96Q

- EC50 [1]: 0.299 nM
B3: PcOxP_DB03_B11 (human IgG1) (antibody, V domains shown)
VH: B1 VH with S31D, Y32F, M34V, E57T
VL: B1 VL with S58Q, A95G, N96Q

- EC50 [1]: 0.413 nM
B4: PcOxP_DB04_A11 (human IgG1) (antibody, V domains shown)
VH: B1 VH with S31D, E57T
VL: B1 VL with L29V, Y30L, V36K, H37N, N59T, N96Q

- EC50 [1]: 0.445 nM
B5: PcOxP_DB03_H08 (human IgG1) (antibody, V domains shown)
VH: B1 VH with F27G, S31D, Y32F, E57T
VL: DIQMTQSPSSLSASVGDRVTITCTASESLYSSKHKVHYLAWYQQKPGKAPKLLIYGSSNRYIGVPSRFSGSGSGTDFTLTISSLQPEDFATYYCAQFYQYPLTFGGGTKVEIK

- EC50 [1]: 0.285 nM
B6: PcOxP_DB03_C10 (human IgG1) (antibody, V domains shown)
VH: B1 VH
VL: B1 VL with S58G, N96Q

- EC50 [1]: 0.275 nM
B7: PcOxP_DB01_H01 (human IgG1) (antibody, V domains shown)
VH: B1 VH with E57L, Y107T
VL: B1 VL with N96Q

- EC50 [1]: 0.308 nM
B8: PcOxP_DB01_G09 (human IgG1) (antibody, V domains shown)
VH: B1 VH with S31D, E57T
VL: B5 VL with S57A, R60L, I62S, Q99S

- OD450 [2]: 0.75 OD450
- OD450 [3]: 1.32 OD450
- OD450 [4]: 0.08 OD450
- OD450 [5]: 0.04 OD450
- OD450 [6]: 0.05 OD450
B9: PcOxP_DB02_B04 (scFv, V domains shown)
VH: B1 VH with S31D, A55W, E57D
VL: B1 VL with N96Q
notes: scFv in periplasmic extract

- OD450 [2]: 0.4 OD450
- OD450 [3]: 0.77 OD450
- OD450 [4]: 0.06 OD450
- OD450 [5]: 0.04 OD450
- OD450 [6]: 0.04 OD450
B10: PcOxP_DB02_B07 (scFv, V domains shown)
VH: B1 VH with S31D, Y32Q, K54N, E57D
VL: B1 VL with Y61Q, N96Q, S99H
notes: scFv in periplasmic extract

- OD450 [2]: 0.46 OD450
- OD450 [3]: 1.29 OD450
- OD450 [4]: 0.1 OD450
- OD450 [5]: 0.06 OD450
- OD450 [6]: 0.07 OD450
B11: PcOxP_DB01_H03 (scFv, V domains shown)
VH: B1 VH with S31D, Y32H, N53G, A55G, E57S, E61A
VL: B1 VL with S58G, N96Q, S99H
notes: scFv in periplasmic extract

- OD450 [2]: 0.16 OD450
- OD450 [3]: 0.27 OD450
- OD450 [4]: 0.05 OD450
- OD450 [5]: 0.04 OD450
- OD450 [6]: 0.04 OD450
B12: PcOxP_DB02_D02 (scFv, V domains shown)
VH: B1 VH with S31D, E57D, V112T
VL: B1 VL with A25S, L29V, K33S, N96Q, S99Y
notes: scFv in periplasmic extract

- OD450 [2]: 0.82 OD450
- OD450 [3]: 1.23 OD450
- OD450 [4]: 0.09 OD450
- OD450 [5]: 0.06 OD450
- OD450 [6]: 0.07 OD450
B13: PcOxP_DB01_H01 (scFv, V domains shown)
VH: B1 VH with E57L, Y107T
VL: B1 VL with N96Q
notes: scFv in periplasmic extract

- OD450 [2]: 0.44 OD450
- OD450 [3]: 0.92 OD450
- OD450 [4]: 0.06 OD450
- OD450 [5]: 0.04 OD450
- OD450 [6]: 0.04 OD450
B14: PcOxP_DB02_C10 (scFv, V domains shown)
VH: B1 VH with S31D, E57D
VL: B1 VL with N96Q, S99E
notes: scFv in periplasmic extract

- OD450 [2]: 0.97 OD450
- OD450 [3]: 1.58 OD450
- OD450 [4]: 0.07 OD450
- OD450 [5]: 0.04 OD450
- OD450 [6]: 0.04 OD450
B15: PcOxP_DB02_C12 (scFv, V domains shown)
VH: B1 VH with S31D, Y32H, E57D
VL: B1 VL with S58H
notes: scFv in periplasmic extract

- OD450 [2]: 0.09 OD450
- OD450 [3]: 0.34 OD450
- OD450 [4]: 0.06 OD450
- OD450 [5]: 0.05 OD450
- OD450 [6]: 0.04 OD450
B16: PcOxP_DB02_E02 (scFv, V domains shown)
VH: B1 VH with S31D, Y32E, K54S, A55G, E57S, E61A
VL: B1 VL with N96Q
notes: scFv in periplasmic extract

- OD450 [2]: 0.24 OD450
- OD450 [3]: 0.49 OD450
- OD450 [4]: 0.07 OD450
- OD450 [5]: 0.04 OD450
- OD450 [6]: 0.04 OD450
B17: PcOxP_DB02_E08 (scFv, V domains shown)
VH: B1 VH with S31D, Y32D, S51T, E57D, V112S
VL: B1 VL with N96Q
notes: scFv in periplasmic extract

- OD450 [2]: 0.64 OD450
- OD450 [3]: 0.92 OD450
- OD450 [4]: 0.06 OD450
- OD450 [5]: 0.04 OD450
- OD450 [6]: 0.04 OD450
B18: PcOxP_DB02_C05 (scFv, V domains shown)
VH: B1 VH with F29A, S31D, Y32F, E57D
VL: B1 VL with N96Q
notes: scFv in periplasmic extract

- OD450 [2]: 0.74 OD450
- OD450 [3]: 1.1 OD450
- OD450 [4]: 0.1 OD450
- OD450 [5]: 0.06 OD450
- OD450 [6]: 0.07 OD450
B19: PcOxP_DB01_H02 (scFv, V domains shown)
VH: B1 VH with E57D
VL: B1 VL with E27S, N96Q
notes: scFv in periplasmic extract

- OD450 [2]: 0.96 OD450
- OD450 [3]: 1.79 OD450
- OD450 [4]: 0.11 OD450
- OD450 [5]: 0.07 OD450
- OD450 [6]: 0.05 OD450
B20: PcOxP_DB01_H06 (scFv, V domains shown)
VH: B1 VH with S31D, Y32F, A55G, E57S, E61A
VL: B1 VL with I62D
notes: scFv in periplasmic extract

- OD450 [2]: 0.37 OD450
- OD450 [3]: 0.75 OD450
- OD450 [4]: 0.08 OD450
- OD450 [5]: 0.05 OD450
- OD450 [6]: 0.05 OD450
B21: PcOxP_DB02_C04 (scFv, V domains shown)
VH: B1 VH with F27Q, S31D, Y32F, E57G, A63T
VL: B1 VL with S58N, N96Q
notes: scFv in periplasmic extract

- OD450 [2]: 0.71 OD450
- OD450 [3]: 1.52 OD450
- OD450 [4]: 0.1 OD450
- OD450 [5]: 0.05 OD450
- OD450 [6]: 0.05 OD450
B22: PcOxP_DB01_G10 (scFv, V domains shown)
VH: B1 VH with S31D, Y32F, A55N, E57D
VL: B1 VL with T24K, E27Q, V36K, I62P, N96Q, S99R
notes: scFv in periplasmic extract

- OD450 [2]: 0.54 OD450
- OD450 [3]: 0.61 OD450
- OD450 [4]: 0.1 OD450
- OD450 [5]: 0.05 OD450
- OD450 [6]: 0.05 OD450
B23: PcOxP_DB02_C03 (scFv, V domains shown)
VH: B1 VH with S31D, N53W, E57D
VL: B1 VL with N96Q, S99V
notes: scFv in periplasmic extract

- OD450 [2]: 0.99 OD450
- OD450 [3]: 1.24 OD450
- OD450 [4]: 0.07 OD450
- OD450 [5]: 0.04 OD450
- OD450 [6]: 0.05 OD450
B24: PcOxP_DB02_A05 (scFv, V domains shown)
VH: B1 VH with F29G, S31D, Y32F, A55W, E57D
VL: B1 VL with S58G, N96Q
notes: scFv in periplasmic extract

- OD450 [2]: 0.33 OD450
- OD450 [3]: 0.82 OD450
- OD450 [4]: 0.09 OD450
- OD450 [5]: 0.04 OD450
- OD450 [6]: 0.04 OD450
B25: PcOxP_DB02_A04 (scFv, V domains shown)
VH: B1 VH with F27D, S31D, Y32F, A55W, E57D
VL: B1 VL with N96Q
notes: scFv in periplasmic extract

- OD450 [2]: 0.39 OD450
- OD450 [3]: 0.75 OD450
- OD450 [4]: 0.08 OD450
- OD450 [5]: 0.05 OD450
- OD450 [6]: 0.04 OD450
B26: PcOxP_DB02_E03 (scFv, V domains shown)
VH: B1 VH with S31D, N53W, E57D, Y107Q
VL: B1 VL with V36K, H37N, N59W, N96Q
notes: scFv in periplasmic extract

- OD450 [2]: 0.42 OD450
- OD450 [3]: 0.71 OD450
- OD450 [4]: 0.08 OD450
- OD450 [5]: 0.04 OD450
- OD450 [6]: 0.04 OD450
B27: PcOxP_DB02_D03 (scFv, V domains shown)
VH: B1 VH with F29Q, S31D, Y32F, E57A, S105Y
VL: B1 VL with A57N, A95G, N96Q
notes: scFv in periplasmic extract

- OD450 [2]: 0.22 OD450
- OD450 [3]: 0.39 OD450
- OD450 [4]: 0.06 OD450
- OD450 [5]: 0.04 OD450
- OD450 [6]: 0.06 OD450
B28: PcOxP_DB02_C08 (scFv, V domains shown)
VH: B1 VH with S31D, Y32P, E57D, S106P
VL: B1 VL with T24G, H34S, N96Q
notes: scFv in periplasmic extract

- OD450 [2]: 0.56 OD450
- OD450 [3]: 0.74 OD450
- OD450 [4]: 0.07 OD450
- OD450 [5]: 0.04 OD450
- OD450 [6]: 0.04 OD450
B29: PcOxP_DB02_E09 (scFv, V domains shown)
VH: B1 VH with S31D, N53W, E57D
VL: B1 VL with N59T, I62S, N96Q, S99T
notes: scFv in periplasmic extract

- OD450 [2]: 0.23 OD450
- OD450 [3]: 0.76 OD450
- OD450 [4]: 0.06 OD450
- OD450 [5]: 0.04 OD450
- OD450 [6]: 0.04 OD450
B30: PcOxP_DB02_E11 (scFv, V domains shown)
VH: B1 VH with S31D, Y32Q, E57D, T60V
VL: B1 VL with T24K, A25S, Y30L, S31Y, H34N, K35N, V36K, H37N, I62S, N96Q
notes: scFv in periplasmic extract
